No end group written: not given here.
B3: Med25-ACID_(532-680), activator interaction domain (ACID) of mediator complex subunit 25 (domain or fragment, Arabidopsis thaliana, UniProt Q7XYY2 532-680, looked up)
chain: SNSSAPNMQLSQPSSGAMQTSQSKYVKVWEGNLSGQRQGQPVLITRLEGYRSASASDSLAANWPPTMQIVRLISQDHMNNKQYVGKADFLVFRAMSQHGFLGQLQDKKLCAVIQLPSQTLLLSVSDKACRLIGMLFPGDMVVFKPQIPN
notes: 15N- or 13C,15N-labelled in the NMR titrations; unlabelled in ITC, CEST and stopped-flow; also called AtMed25-ACID; ACID domain; source: E. coli BL21 DE3, purified (glutathione Sepharose, TEV cleavage, cation exchange, SEC); not shown: GST, N-terminal, cleaved

What was measured:
RCD1-RST = molecular target: T1, RCD1-RST (Arabidopsis thaliana, UniProt Q8RY59); conditions: cited from earlier work
T1 construct: RCD1-RST
T1 sequence (Q8RY59 499-572): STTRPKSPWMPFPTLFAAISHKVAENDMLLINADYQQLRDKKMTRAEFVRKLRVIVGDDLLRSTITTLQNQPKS
Text: However, alternative splicing of DREB2A will shortcut such regulatory fine-tuning of competition by removing the RIM, thereby eliminating RCD1 as a repressor while leaving AD2 available (Fig. 7B). This provides an obvious mechanism for functional switching in a transcriptional pathway.

Med25-ACID R568A [1] = molecular target: T2, Med25-ACID R568A (Arabidopsis thaliana, UniProt Q7XYY2, R568A); conditions: SD, n = 2
T2 construct: Med25-ACID532-680 R568A, N-terminal GST tag removed by TEV protease
Description: To validate the proposed binding groove, we introduced an alanine in L1, replacing Arg568, which experienced a large CSP upon DREB2A binding, and determined the binding affinity using ITC with the high-affinity ABS-RIM fragment (DREB2A234-276, Fig. 1A). […] Thus, both NMR and thermodynamics supported the importance of the groove for the interaction with DREB2A.
ITC was performed on either a MicroCal ITC200 or a Malvern Pananalytical PEAQ-ITC. All ITC experiments were performed using a 50 mM HEPES pH 7.4, 100 mM NaCl and 0.5 mM tris(2-carboxyethyl)phosphine (TCEP) buffer. All experiments were performed using a ~ 1:10 cell to syringe protein concentration ratio. For high-affinity DREB2A fragments, the cell concentration was around 15 µM, while lower-affinity interaction experiments used higher concentrations. Samples were degassed by centrifuging at 20,000 x g for 20 minutes at experimental temperature. For three DREB2A fragments, experiments were performed over a range of temperatures to determine the ΔCp. Reported thermodynamic parameters are given at 25 °C. Data were analyzed using Origin and inhouse scripts using the one-set-of-sites model as documented by MicroCal and Origin. Dilution heats were fitted using an offset parameter. Most experiments were performed using a 0.5 µl initial injection, which was discarded in the analysis, followed by 18 injections of 2.0 µl. […]

Med25-ACID = molecular target: T3, Med25-ACID (Arabidopsis thaliana, UniProt Q7XYY2); conditions: SD
T3 construct: Med25-ACID532-680 (AT1G25540), expressed in E. coli with N-terminal GST tag removed by TEV protease
Description: All protein fragments were produced with an N-terminal Glutathione-S-transferase (GST) tag which was removed using Tobacco Etch Virus (TEV) protease and expressed from E.coli BL21 DE3 cells. DREB2A (AT5G05410) variants were expressed at 37 °C for three hours. The DREB2A splice variant (AT5G05410.2) was based on GenBank ID CD530293[21]. Due to stability and aggregation considerations, Med25-ACID (AT1G25540) was expressed with additional N-terminal residues. Expression of Med25-ACID532-680 was induced at high OD (0.8-1.0) and cultured overnight at 18 °C. Cells were resuspended in 20 mM Tris-HCl pH 8.0, 100 mM NaCl lysis buffer and sonicated. The lysate was incubated with glutathione Sepharose for one hour and washed using the lysis buffer. Aliquots of 5 mL resin were resuspended in 20 mL of lysis buffer with 5 mM dithiothreitol (DTT) and 1 mM EDTA and the protein was cleaved overnight at 4 °C using TEV protease. For DREB2A, cleaved protein was freeze-dried and buffer-changed to experimental buffer using size exclusion chromatography. Med25-ACID was further purified using cation exchange (Source 15 S) at pH 8.5 and the buffer was changed using size exclusion chromatography (Superdex S75 10/300 GL). Isotope-labeled proteins were produced by growing the initial culture in lysogenic broth and transferring to half volume M9 minimal media 30 min before induction.
ITC was performed on either a MicroCal ITC200 or a Malvern Pananalytical PEAQ-ITC. All ITC experiments were performed using a 50 mM HEPES pH 7.4, 100 mM NaCl and 0.5 mM tris(2-carboxyethyl)phosphine (TCEP) buffer. All experiments were performed using a ~ 1:10 cell to syringe protein concentration ratio. For high-affinity DREB2A fragments, the cell concentration was around 15 µM, while lower-affinity interaction experiments used higher concentrations. Samples were degassed by centrifuging at 20,000 x g for 20 minutes at experimental temperature. For three DREB2A fragments, experiments were performed over a range of temperatures to determine the ΔCp. Reported thermodynamic parameters are given at 25 °C. Data were analyzed using Origin and inhouse scripts using the one-set-of-sites model as documented by MicroCal and Origin. Dilution heats were fitted using an offset parameter. Most experiments were performed using a 0.5 µl initial injection, which was discarded in the analysis, followed by 18 injections of 2.0 µl.

[2] = molecular target: T4, Med25-ACID_(532-680), activator interaction domain (ACID) of mediator complex subunit 25 (Arabidopsis thaliana, UniProt Q7XYY2 532-680); test: NMR; cis proline isomer, 10 °C
T4 chain: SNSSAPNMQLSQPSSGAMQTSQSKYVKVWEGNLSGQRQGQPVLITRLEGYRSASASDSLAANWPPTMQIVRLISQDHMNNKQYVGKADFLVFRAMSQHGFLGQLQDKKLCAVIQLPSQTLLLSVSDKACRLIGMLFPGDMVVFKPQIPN

[3] = molecular target: T4, Med25-ACID_(532-680), activator …; test: trans proline isomer, 10 °C
[4] = molecular target: T4, Med25-ACID_(532-680), activator …; test: NMR; trans proline isomer, 10 °C
[5] = molecular target: B3; test: ITC; 25 °C; 50 mM HEPES pH 7.4, 100 mM NaCl, 0.5 mM TCEP; ~1:10 cell to syringe concentration ratio, cell around 15 µM for high-affinity fragments; one-set-of-sites model; which protein was in the cell is not stated; conditions: both partners purified
Med25-ACID R568A [6] = molecular target: T5, Med25-ACID R568A (Arabidopsis thaliana, UniProt Q7XYY2 532-680, R568A); test: as above; conditions: both partners purified
T5 construct: Mediator complex subunit 25 (Med25), Arabidopsis thaliana, AT1G25540, ACID domain construct with Arg568 in loop L1 replaced by alanine; the only Med25-ACID construct described is 532-680; source: E. coli BL21 DE3, purified (glutathione Sepharose, TEV cleavage, cation exchange, SEC); not shown: GST, N-terminal, cleaved
T5 sequence (looked up): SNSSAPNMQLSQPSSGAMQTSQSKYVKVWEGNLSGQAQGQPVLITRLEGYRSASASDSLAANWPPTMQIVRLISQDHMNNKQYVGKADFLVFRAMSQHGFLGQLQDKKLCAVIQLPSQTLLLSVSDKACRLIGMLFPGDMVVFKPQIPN

[7] = molecular target: B3; test: as above; conditions: both partners purified; remark: listed apart in the source
[8] = molecular target: T4, Med25-ACID_(532-680), activator …; test: cis proline isomer, 10 °C
[9] = molecular target: B3; test: CEST NMR; 15N- and 13C-CEST; 500 µM 13C,15N-labeled DREB2A(234-276) or 1 mM DREB2A(234-276,P245A) with about 5% molar ratio of unlabeled Med25-ACID(532-680); pH 6.1, 20 mM phosphate, 100 mM NaCl; 25 °C and 10 °C; isomer Kd values estimated from the bound fractions and the overall ITC affinity; conditions: both partners purified
[10] = molecular target: T4, Med25-ACID_(532-680), activator …; test: stopped-flow, 10 °C
[11] = molecular target: B3; test: stopped-flow fluorescence; FITC-DREB2A (50 nM 234-276 or 250 nM 234-256) mixed with increasing Med25-ACID(532-680), pseudo-first-order; dissociation by competitive displacement with unlabeled DREB2A; 50 mM HEPES pH 7.4, 100 mM NaCl, 1 mM DTT; Fig. 7 legend gives kinetic rate constants at 10 °C; conditions: both partners purified
[12] = molecular target: T4, Med25-ACID_(532-680), activator …; test: stopped-flow, 10 °C
DREB2A_(151-335) = molecular target: T6, DREB2A_(151-335) (Arabidopsis thaliana, UniProt O82132 151-335); test: ITC; 25 °C; 50 mM HEPES pH 7.4, 100 mM NaCl, 0.5 mM TCEP; ~1:10 cell to syringe concentration ratio, cell around 15 µM for high-affinity fragments; one-set-of-sites model; which protein was in the cell is not stated; conditions: both partners purified
T6 construct: also called C-terminal intrinsically disordered region (IDR) of DREB2A; source: E. coli BL21 DE3, purified (glutathione Sepharose, TEV cleavage, SEC); not shown: GST, N-terminal, cleaved
T6 sequence (looked up): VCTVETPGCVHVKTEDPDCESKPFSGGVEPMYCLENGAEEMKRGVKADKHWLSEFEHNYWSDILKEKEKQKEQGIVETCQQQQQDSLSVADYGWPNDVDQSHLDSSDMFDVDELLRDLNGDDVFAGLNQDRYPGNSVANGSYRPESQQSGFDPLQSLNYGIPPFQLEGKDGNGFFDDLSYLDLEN

Which Kd (RCD1-RST) does the source give for DREB2A (fragment borders not printed) here?
Its Kd is 12 nM.

What does the source list for DREB2A195-276 [195–276]?
Kd (Med25-ACID R568A [1]): 3100 nM; Kd (Med25-ACID): 450 ± 30 nM

B1: DREB2A_(234-276) (ABS-RIM) (domain or fragment, Arabidopsis thaliana, UniProt O82132 234-276, looked up)
chain: QDSLSVADYGWPNDVDQSHLDSSDMFDVDELLRDLNGDDVFAG
notes: 13C,15N-labelled in the CEST experiments; Populates cis (30 ± 1%) and trans Trp244-Pro245 isomers in the free state; also called bivalent ABS-RIM fragment; source: E. coli BL21 DE3, purified (glutathione Sepharose, TEV cleavage, SEC); not shown: GST, N-terminal, cleaved
For B1, which Kd [2] is on record?
The Kd was 110 nM.

And the koff [3]?
Its koff is 24 s⁻¹.

What about the Kd [4] of the same molecule?
The Kd was 190 nM.

And the Kd [5]?
The Kd was 510 nM.

What about the dH [5] of the same molecule?
Its dH is -12.1 kcal/mol.

What about the “stoichiometry N” value [5] of the same molecule?
The value was 0.98.

And the Kd (Med25-ACID R568A [6])?
The Kd was 3100 ± 700 nM.

And the dH (Med25-ACID R568A [6])?
The dH was -11 ± 0.956 kcal/mol.

What about the “stoichiometry N” value (Med25-ACID R568A [6]) of the same molecule?
Its value is 0.9 ± 0.01.

And the Kd [7]?
The Kd was 520 ± 20 nM.

And the koff [8]?
Its koff is 6 s⁻¹.

And the “KD of the cis-Pro245 isomer (estimated from CEST bound fractions and the ITC affinity)” value [9]?
Its value is 330 ± 20 nM.

What about the “KD of the trans-Pro245 isomer (estimated from CEST bound fractions and the ITC affinity)” value [9] of the same molecule?
Its value is 640 ± 30 nM.

B2: FITC-DREB2A_(234-256) synthetic peptide (peptide, UniProt O82132 234-256, looked up)
peptide: QDSLSVADYGWPNDVDQSHLDSS
modifications: also: FITC label, position not given here
notes: DREB2A, Arabidopsis thaliana, AT5G05410, residues 234-256; also called FITC-labeled ABS; source: synthetic peptide, bought: TAG Copenhagen A/S
With B2 as the molecule, how does the Kd [10] read?
Its Kd is 1800 nM.

What about the kon [11] of the same molecule?
Its kon is 2.9e+07 ± 1e+06 M⁻¹ s⁻¹.

And the koff [12]?
The koff was 54 s⁻¹.

For B3, which Kd (DREB2A_(151-335)) is on record?
The Kd was 540 nM.

Source: PMC10796322, “Molecular switching in transcription through splicing and proline-isomerization regulates stress responses in plants” (Nature Communications, 2024)
